The values that follow come from article PMC6565748, “Environmental pH and peptide signaling control virulence of Streptococcus pyogenes via a quorum-sensing pathway” (Nature Communications, 2019).

Where a SMILES comes first, the peptide text is derived from it. Where no end group is shown, it is not given here. The star is where a group is joined. FITC = O=C1OC2(c3ccc(O)cc3Oc3cc(O)ccc32)c2ccc(NC(=S)*)cc21

For one experiment, the system named is SpeBM. As to the kind of experiment: SpeB protease activity assay with SpeBZ-C192S zymogen as substrate. In kind it is biochemical, Streptococcus pyogenes. Particulars: SDS-PAGE; 0.25 mg/ml C192S zymogen, 0.1 µg mature SpeB, different buffer pH. How it is done: Purified C192S was added to a final concentration of 0.25 mg/ml in reaction mixture containing 0.1 µg of mature SpeB in different buffer pH conditions. Aliquots were collected at indicated time points and reaction was stopped by adding SDS gel-loading buffer. Proteolytic processing of C192S zymogen into mature form was visualized by SDS-PAGE.

The target in a further experiment is T1, RopB (Streptococcus pyogenes, UniProt Q9FB04).
T1 sequence (Q9FB04 1-280): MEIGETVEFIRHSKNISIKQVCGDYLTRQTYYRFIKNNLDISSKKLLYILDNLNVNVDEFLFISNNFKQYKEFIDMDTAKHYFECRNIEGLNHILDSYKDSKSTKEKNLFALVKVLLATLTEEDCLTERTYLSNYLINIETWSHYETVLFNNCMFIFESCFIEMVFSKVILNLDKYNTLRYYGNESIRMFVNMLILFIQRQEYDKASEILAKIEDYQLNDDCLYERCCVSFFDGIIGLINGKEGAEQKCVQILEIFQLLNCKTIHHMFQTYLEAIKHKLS
As to the kind of experiment: Fluorescence polarization (FP) assay of RopB binding to fluoresceinated SIP peptides. The following applies: Fig. 3c; compared to SIP (SIP-WT). How it is done: The coding regions of the full-length and C-terminal domain (RopB–CTD) (amino acids 56–280) of ropB gene of strain MGAS10870 were cloned into plasmids pET-28a and pET-21b, respectively. Protein was overexpressed in E. coli strain BL21 (DE3). Protein overexpression and purification for both full-length RopB and RopB–CTD were carried out as described previously[37],[68]. The proteins were purified to >95% homogeneity and concentrated to a final concentration of ~ 20 mg/ml.
(§1) Fluorescence polarization-based RopB-ligand binding experiments were performed with a Biotek microplate reader (Biotek) using the […] fluorescence of fluorescein labeled DNA or synthetic peptides. The polarization (P) of the labeled DNA or synthetic peptides increases as a function of protein binding, and equilibrium dissociation constants were determined from plots of millipolarization (P × 10^–3) against protein concentration. For RopB–DNA-binding studies, 1 nM 5′-fluoresceinated oligoduplex in binding buffer (20 mM Tris–HCl pH 8.5, 200 mM NaCl, 1 mM TCEP and 25% DMSO) was titrated against increasing concentrations of purified RopB and the resulting change in polarization measured. Samples were excited at 490 nm and emission measured at 530 nm. […]

Experiment [1] deals with speB expression in SIP* mutant strain. As to the kind of experiment: Synthetic peptide addition assay, speB transcript level by qRT-PCR in SIP* mutant strain. Format: cell-based, Streptococcus pyogenes. The procedure:
Synthetic peptides of high purity (>90% purity) obtained from Peptide 2.0 (Chantilly, VA) were suspended in 100% DMSO to prepare a 10 mM stock solution. Stock solutions were aliquoted and stored at −20 °C until use. Working stocks were prepared by diluting the stock solution in 25% DMSO.
GAS strains were grown to the indicated A600 and incubated with two volumes of RNAprotect (Qiagen) for 10 min at room temperature. RNA isolation and purification were performed with an RNeasy kit (Qiagen). After quality control analysis, cDNA was synthesized from the purified RNA using Superscript III (Invitrogen) and Taqman qRT-PCR was performed with an ABI 7500 Fast System (Applied Biosystems). Comparison of transcript levels was performed by the ∆CT method of analysis using tufA as the endogenous control gene[5],[78]. The primers and probes used for qRT-PCR are listed in Supplementary Table 2.
On the technique in general: Real-time PCR tracks product formation cycle by cycle.

The test system of experiment [2] is RopB–speB promoter interactions. As to the kind of experiment: FP assay of RopB–DNA binding in presence of SIP peptides. The following applies: fluoresceinated oligoduplexes with RopB binding sites from speB promoter, RopB complexed with SIP peptide (Supplementary Fig. 8c, d). Details: species or system Streptococcus pyogenes. How it is done: as §1, with “nm. The RopB-peptide-binding studies were performed in a peptide-binding buffer composed of 20 mM potassium phosphate pH 6.0, 75 mM Nacl, 2% DMSO, 1 mM EDTA and 0.0005% Tween 20. All data were plotted using KaleidaGraph and the resulting plots were fitted with the equation P = {(Pbound − Pfree)[protein]/(KD + [protein])} + Pfree, where P is the polarization measured at a given protein concentration, Pfree is the initial polarization of the free ligand, Pbound is the maximum polarization of specifically bound ligand and [protein] is the protein concentration. Nonlinear least squares analysis was used to determine Pbound, and Kd.” for “nm.”

Experiment [3] has as its target regulator of proteinase B (RopB), full-length, wild type. Briefly: FP assay. Particulars: for Kd: parent: 13 ± 0.3 nM.
Experiment [4] deals with synthetic SIP variant SIP-L6A (Streptococcus pyogenes). As to the kind of experiment: fluorescence polarisation; fluorescein labeled synthetic peptide titrated with purified RopB protein; 20 mM potassium phosphate pH 6.0, 75 mM NaCl, 2% DMSO, 1 mM EDTA, 0.0005% Tween 20. A general note: Polarisation of emitted light reports the rotation of a fluorescent probe.
Experiment [5] addresses synthetic SIP peptide containing fluorescein modification at its amino-terminus (FITC-SIP). Briefly: FP assay. Particulars: for Kd: parent: 6.3 ± 0.5 nM.
Experiment [6] addresses T2, regulator of proteinase B (RopB), full-length, wild type (Streptococcus pyogenes (strain …)).
T2 chain: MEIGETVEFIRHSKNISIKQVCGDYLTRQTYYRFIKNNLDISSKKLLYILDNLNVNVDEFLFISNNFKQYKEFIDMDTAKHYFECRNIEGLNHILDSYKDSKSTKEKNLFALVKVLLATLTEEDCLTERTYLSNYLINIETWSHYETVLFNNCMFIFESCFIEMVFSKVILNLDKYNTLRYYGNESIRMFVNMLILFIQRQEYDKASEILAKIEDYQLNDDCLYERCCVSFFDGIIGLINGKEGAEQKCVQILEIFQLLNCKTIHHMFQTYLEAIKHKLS
As to the kind of experiment: FP; pH 5.5.

In experiment [7] the target is T2, regulator of proteinase B (RopB), …. Briefly: FP; pH 6.0.
Experiment [8] shares this target. Briefly: FP; pH 6.5.
The target is the same in experiment [9]. As to the kind of experiment: FP; pH 7.0.
Experiment [10] shares this target. Briefly: FP; pH 7.5.
Experiment [11] has the same target. As to the kind of experiment: FP; pH 8.0.
Experiment [12] shares this target. As to the kind of experiment: FP; pH 8.5.
The target is the same in experiment [13]. As to the kind of experiment: FP; pH 9.0.

As to `CC(C)C[C@H](NC(=O)[C@H]1O[C@@H]1C(=O)O)C(=O)NCCCCN=C(N)N` [E64], the “Proteolytic cleavage of SpeBZ-C192S by SpeBM” value with SpeBM is reported as “inhibited”.

Take `CSCC[C@H](N)C(=O)N[C@@H](Cc1c[nH]c2ccccc12)C(=O)N[C@@H](CC(C)C)C(=O)N[C@@H](CC(C)C)C(=O)N[C@@H](CC(C)C)C(=O)N[C@@H](C)C(=O)N[C@@H](Cc1ccccc1)C(=O)N[C@@H](CC(C)C)C(=O)O` [SIP-L6A] (H-MWLLLAFL-OH; N-terminus and C-terminus assumed): at RopB, the “Fold change reduction in Kd” value is given as ~ 2.7. The “Ability to activate RopB-dependent speB expression” value in [1] (SIP addition assay, SIP* mutant strain, reference DMSO-supplemented strain (Fig. 3d)) is “partial activity”. For the same molecule, the “Effect on RopB–promoter (operator sequence) interactions” value in experiment [2] is listed as “WT-like binding to operator sequences”.

For the molecule `CSCC[C@H](N)C(=O)N[C@@H](Cc1c[nH]c2ccccc12)C(=O)N[C@@H](CC(C)C)C(=O)N[C@@H](CC(C)C)C(=O)N[C@@H](CC(C)C)C(=O)N[C@@H](CC(C)C)C(=O)N[C@@H](Cc1ccccc1)C(=O)N[C@@H](CC(C)C)C(=O)O` [SIP] (H-MWLLLLFL-OH; N-terminus and C-terminus assumed), the “SIP-dependent speB expression (speB transcript level)” value in [1] (SIP* mutant strain at A600 ~1.7, THY broth adjusted to different pH, synthetic SIP, 1 h, relative to unsupplemented strain) is “maximal within a very narrow pH range (pH 5.5–6.0)”. Also, the “Ability to induce speB expression” value in [1] (SIP* mutant strain, THY pH 8, SIP added even at 100-fold excess, 1 h) is “lost the ability to induce speB expression”.

What is called Kd is the equilibrium constant for the complex coming apart. Turning to “SpeB-inducing peptide (SIP), synthetic, unmodified F7A”, in experiment [3], the ratio to parent came out at 11 and the Kd amounted to 142 nM.

Turning to “SpeB-inducing peptide (SIP), synthetic, unmodified L3A”, in experiment [3], the ratio to parent was found to be 41 and the Kd worked out at 534 nM.

With “SpeB-inducing peptide (SIP), synthetic, unmodified L4A”, in [3], the ratio to parent came out at 27 and the Kd was found to be 358 nM.

In the case of “SpeB-inducing peptide (SIP), synthetic, unmodified L5A”, in experiment [3], the ratio to parent was determined as 48 and the Kd was determined as 625 nM.

With “SpeB-inducing peptide (SIP), synthetic, unmodified L6A”, in [3], the Kd turned out to be 36 nM.

As to “SpeB-inducing peptide (SIP), synthetic, unmodified L8A”, in experiment [3], the ratio to parent amounted to 8 and the Kd turned out to be 106 nM.

As for “SpeB-inducing peptide (SIP), synthetic, unmodified M1A”, in experiment [3], the ratio to parent worked out at 20 and the Kd is 259 nM.

Take “SpeB-inducing peptide (SIP), synthetic, unmodified W2A”: in [3], the ratio to parent was determined as 44 and the Kd amounted to 570 nM.

Take “regulator of proteinase B (RopB), full-length, wild type (receptor)”: the fold reduction in binding affinity compared to SIP in experiment [4] was 2.7 fold.

In the case of “regulator of proteinase B (RopB), full-length, wild type F155A”, in [5], the ratio to parent came out at 5 and the Kd was found to be 33 nM.

Regarding “regulator of proteinase B (RopB), full-length, wild type M267A”, in [5], the ratio to parent was 44 and the Kd was determined as 283 nM.

On to “regulator of proteinase B (RopB), full-length, wild type N152A”, for which, in [5], the ratio to parent was found to be 28 and the Kd was found to be 243 nM.

Turning to “regulator of proteinase B (RopB), full-length, wild type N192A”, in experiment [5], the ratio to parent was found to be 72 and the Kd was found to be 462 nM.

As for “regulator of proteinase B (RopB), full-length, wild type R188A”, in experiment [5], the ratio to parent turned out to be 67 and the Kd was determined as 429 nM.

B1: synthetic SIP peptide containing fluorescein modification at its amino-terminus (FITC-SIP) (peptide)
chain: {FITC}-MWLLLLFL
B1: the dissociation constant Kd in experiment [6] stood at 5.4 nM; in [7] it was 1.8 nM; in experiment [8], 2.9 nM; in experiment [9] it was 11.8 nM; in experiment [10] it was 42.1 nM; in [11] it was 78.6 nM. The figures for the dissociation constant (Kd) in experiment [12] and in experiment [13] were 222 nM and 320 nM, respectively.
